Results published in publication PMC11670113 (Proceedings of the National Academy of Sciences of the …, 2024).

B1: AP-3 δ subunit (residues 1-617), as in the AP-3 core (domain or fragment, human, UniProt O14617 1-617, looked up)
chain: MALKMVKGSIDRMFDKNLQDLVRGIRNHKEDEAKYISQCIDEIKQELKQDNIAVKANAVCKLTYLQMLGYDISWAAFNIIEVMSASKFTFKRIGYLAASQSFHEGTDVIMLTTNQIRKDLSSPSQYDTGVALTGLSCFVTPDLARDLANDIMTLMSHTKPYIRKKAVLIMYKVFLKYPESLRPAFPRLKEKLEDPDPGVQSAAVNVICELARRNPKNYLSLAPLFFKLMTSSTNNWVLIKIIKLFGALTPLEPRLGKKLIEPLTNLIHSTSAMSLLYECVNTVIAVLISLSSGMPNHSASIQLCVQKLRILIEDSDQNLKYLGLLAMSKILKTHPKSVQSHKDLILQCLDDKDESIRLRALDLLYGMVSKKNLMEIVKKLMTHVDKAEGTTYRDELLTKIIDICSQSNYQYITNFEWYISILVELTRLEGTRHGHLIAAQMLDVAIRVKAIRKFAVSQMSALLDSAHLLASSTQRNGICEVLYAAAWICGEFSEHLQEPHHTLEAMLRPRVTTLPGHIQAVYVQNVVKLYASILQQKEQAGEAEGAQAVTQLMVDRLPQFVQSADLEVQERASCILQLVKHIQKLQAKDVPVAEEVSALFAGELNPVAPKAQKKVPV

Experiments:
[1] = biological target: B1; test: cryo-EM structure
[2] = biological target: the molecule itself; test: cryo-EM structure

binding result [1]	Binder	binding result [2]
binds	full-length, myristoylated Arf1-Q71L (enzyme, myristoylated) not shown	–
–	B1	binds
